The source of these data is US6869925 (Amgen, dated 2005).

Broadly, the Kd is the concentration at which binding is half-saturated. Low values mean a tighter complex, high ones a looser complex.

For data set [1], the target named is SLPI binding sites on U937 cells (human monocyte cell line; intact cells, PMA-induced cells or plasma membranes) (human). Put plainly: competition with 125I-SLPI, intact U937 cells, competitor at 0 nM.
For data set [2] the target is unchanged. Description: competition with 125I-SLPI, intact U937 cells, Kd by Cheng-Prusoff.
The target is the same in data set [3]. Put plainly: competition with 125I-SLPI, intact U937 cells, competitor at 26 nM.
For data set [4] the target is unchanged. Put plainly: competition with 125I-SLPI, intact U937 cells, competitor at 84 nM.
Data set [5] deals with SLPI binding sites on HuT78 cells (human T cell line) (human). Description: competition with 125I-SLPI, intact HuT78 cells, competitor at 0 nM.
Data set [6] shares this target. Description: competition with 125I-SLPI, intact HuT78 cells, Kd by Cheng-Prusoff.
In data set [7] the target is SLPI binding sites on U937 cells (human monocyte cell line; intact cells, PMA-induced cells or plasma membranes) (human). Description: competition with 125I-SLPI, intact U937 cells, competitor at 2.6 nM.
The target is the same in data set [8]. Put plainly: competition with 125I-SLPI, intact U937 cells, competitor at 270 nM.
The target is the same in data set [9]. Description: competition with 125I-SLPI, intact U937 cells, competitor at 8.2 nM.
Data set [10] has the same target. Put plainly: competition with 125I-SLPI, intact U937 cells, competitor at 860 nM.
The target of data set [11] is SLPI binding sites on HuT78 cells (human T cell line) (human). Put plainly: competition with 125I-SLPI, intact HuT78 cells, competitor at 84 nM.
For data set [12], the target named is SLPI binding sites on U937 cells (human monocyte cell line; intact cells, PMA-induced cells or plasma membranes) (human). Put plainly: competition with 125I-SLPI, intact U937 cells, competitor at 0.25 nM.
Data set [13] shares this target. Put plainly: competition with 125I-SLPI, intact U937 cells, competitor at 0.80 nM.
Data set [14] has the same target. Description: competition with 125I-SLPI, intact U937 cells, competitor at 2750 nM.
In data set [15] the target is SLPI binding sites on HuT78 cells (human T cell line) (human). Put plainly: competition with 125I-SLPI, intact HuT78 cells, competitor at 2.6 nM.
Data set [16] shares this target. Description: competition with 125I-SLPI, intact HuT78 cells, competitor at 8.2 nM.
Data set [17] deals with SLPI binding sites on U937 cells (human monocyte cell line; intact cells, PMA-induced cells or plasma membranes) (human). Put plainly: competition with 125I-SLPI, intact U937 cells, competitor at 0.024 nM.
Data set [18] has the same target. Description: competition with 125I-SLPI, intact U937 cells, competitor at 0.078 nM.
Data set [19] deals with SLPI binding sites on HuT78 cells (human T cell line) (human). Description: competition with 125I-SLPI, intact HuT78 cells, competitor at 0.80 nM.
The target is the same in data set [20]. Put plainly: competition with 125I-SLPI, intact HuT78 cells, competitor at 2750 nM.
In data set [21] the target is SLPI binding sites on U937 cells (human monocyte cell line; intact cells, PMA-induced cells or plasma membranes) (human). Put plainly: competition with 125I-SLPI, U937 plasma membranes, competitor at 0 nM.
The target is the same in data set [22]. Put plainly: competition with 125I-SLPI, U937 plasma membranes, Kd by Cheng-Prusoff.
For data set [23] the target is unchanged. Put plainly: competition with 125I-SLPI, U937 plasma membranes, competitor at 268 nM.
Data set [24] shares this target. Put plainly: competition with 125I-SLPI, U937 plasma membranes, competitor at 2.56 nM.
Data set [25] shares this target. Put plainly: competition with 125I-SLPI, U937 plasma membranes, competitor at 2750 nM.
Data set [26] has the same target. Description: competition with 125I-SLPI, U937 plasma membranes, competitor at 8.20 nM.
For data set [27] the target is unchanged. Description: competition with 125I-SLPI, U937 plasma membranes, competitor at 83.9 nM.
The target is the same in data set [28]. Description: competition with 125I-SLPI, U937 plasma membranes, competitor at 0.800 nM.
For data set [29] the target is unchanged. Description: competition with 125I-SLPI, U937 plasma membranes, competitor at 0 nM (second GLY72 row).
Data set [30] has the same target. Description: competition with 125I-SLPI, U937 plasma membranes, competitor at 268 nM (second GLY72 row).
Data set [31] has the same target. Put plainly: competition with 125I-SLPI, U937 plasma membranes, competitor at 2.56 nM (second GLY72 row).
Data set [32] shares this target. Put plainly: competition with 125I-SLPI, U937 plasma membranes, competitor at 2750 nM (second GLY72 row).
The target is the same in data set [33]. Description: competition with 125I-SLPI, U937 plasma membranes, competitor at 8.20 nM (second GLY72 row).
The target is the same in data set [34]. Description: competition with 125I-SLPI, U937 plasma membranes, competitor at 83.9 nM (second GLY72 row).
For data set [35] the target is unchanged. Put plainly: competition with 125I-SLPI, U937 plasma membranes, competitor at 0.800 nM (second GLY72 row).
For data set [36], the target named is T1, human neutrophil elastase (human, UniProt P08246 30-247, limits assumed).
T1 construct: also called HNE
T1 sequence (looked up): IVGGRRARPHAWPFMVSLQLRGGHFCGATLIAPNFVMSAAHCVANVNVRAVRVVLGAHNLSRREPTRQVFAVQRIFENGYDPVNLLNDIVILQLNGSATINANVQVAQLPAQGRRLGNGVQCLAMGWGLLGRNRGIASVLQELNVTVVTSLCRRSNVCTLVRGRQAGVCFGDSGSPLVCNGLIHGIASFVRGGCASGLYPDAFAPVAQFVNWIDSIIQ
Put plainly: BIAcore, immobilized Phe72 mutein, monoS fractions of CHAPS-solubilized U937 membranes; identity by comigration. On the technique in general: SPR reads the build-up and loss of mass on a sensor chip optically.
From the text: The BIAcore analytical system is available from Pharmacia Biosensor AB, Uppsala, Sweden.

Data set [37] deals with the molecule itself. Description: DSS crosslinking of 2 µM 125I-SLPI in the absence of virus, reducing SDS-PAGE, phosphor imager.
Method: Incubation was stopped by addition of Laemmli sample buffer. […] The volume of the parallel sample that was loaded on the gel was 5 times larger than the volume of the virus-containing samples.

Changes are numbered by the printed parent chain.

Turning to “SLPI mutein Gly 72 (from UniProt P03973 26-132)”, the % *SLPI BOUND was 131% in data set [1]; 112% in data set [3]; 101% in [4]; 100% in data set [5]; 115% in data set [7]; 75% in [8]. Further, the % *SLPI BOUND in data set [9] turned out to be 117%; in data set [10], 53%; in data set [11] it was 110%; in [12], 120%; in [13], 116%; in data set [14] it was 28%. Besides, the % *SLPI BOUND in data set [15] was found to be 105%; in data set [16] it was 85%; in data set [17] it was 116%; in [18] it was 118%; in data set [19], 108%; in [20], 28%. Further, the Kd in data set [2] was found to be 400 nM; in data set [6], 200 nM; in data set [22], 5 nM. Further, the CPM *SLPI BOUND turned out to be 18700 cpm in data set [21]; 2840 cpm in data set [23]; 12000 cpm in data set [24]; 1780 cpm in data set [25]; 7210 cpm in data set [26]; 3710 cpm in [27]. Moreover, the CPM *SLPI BOUND in data set [28] stood at 14700 cpm; in [29], 18700 cpm; in [30] it was 2530 cpm; in data set [31], 11300 cpm; in data set [32], 1430 cpm; in [33], 7300 cpm. Further, the values for the CPM *SLPI BOUND in data set [34] and in data set [35] were 3940 cpm and 14000 cpm, respectively.

B1: SLPI mutein Phe 72 (other, human, UniProt P03973 26-132, looked up)
chain: SGKSFKAGVCPPKKSAQCLRYKKPECQSDWQCPGKKRCCPDTCGIKCLDPVDTPNPTRRKPGKCPVTYGQCFMLNPPNFCEMDGQCKRDLKCCMGMCGKSCVSPVKA
notes: mature; also called Phe72 mutein
Take B1: the % *SLPI BOUND in [1] was found to be 94%; in data set [4] it was 4%; in [5] it was 100%; in data set [7], 51%; in [9], 22%; in data set [11], 36%. For the same molecule, the % *SLPI BOUND is 77% in [13]; 5% in data set [14]; 90% in data set [15]; 57% in data set [16]; 69% in data set [19]; 1% in data set [20]. In addition, the Kd in data set [2] was 2 nM; in data set [6], 3 nM; in data set [22], 1 nM. Besides, the CPM *SLPI BOUND in [21] worked out at 18700 cpm; in [23] it was 2580 cpm; in data set [24] it was 8920 cpm; in data set [25], 1540 cpm; in data set [26], 4260 cpm; in data set [27] it was 1660 cpm. In data set [28], this molecule showed a CPM *SLPI BOUND of 12400 cpm. In data set [36], the binding result is “binds”.

B2: serine leukocyte protease inhibitor (SLPI) (other, human, UniProt P03973 26-132, looked up)
chain: B1 chain with F72L
modifications: the tracer *SLPI carried I-125 (Bolton Hunter reagent in Examples 12-16, Iodogen in Example 19); positions not given
notes: mature; labelled and cold SLPI are treated as one molecule; also called *SLPI (radiolabelled); cold SLPI
Turning to B2, in data set [37], the binding result is reported as “binds”.
